The results in this text go back to patent US20170100463A1, “METHOD TO IMPROVE SAFETY AND EFFICACY OF ANTI-CANCER THERAPY” (CLS Therapeutics Limited, priority 2014, published 2017).

A short description of data set [1]: Gastrointestinal lesions after Etoposide/5-FU chemotherapy in rats. The format is in vivo, male Wistar rats. The note with it: for Total number of lesions per group: 16 rats; for Total number of lesions per group / Number of lesion free animals (percent) / Median number of lesions / Number of lesion free animals: Etoposide 200 mg/kg + 5-FU 400 mg/kg per os; for Total number of lesions per group / Median number of lesions: 36 hours; for Number of lesion free animals: of 16 rats. The protocol: Animals were divided into 4 groups of 16 rats each. Two hours after the Etoposide/5-FU challenge, rats were treated as follows: • 1. Group I: IV placebo (WFI); • 2.

A further data set is described as follows: in vivo. From the text: Group I: control group (no Doxorubicin, no DNase); • 2.
Animals were monitored during 2 weeks from the beginning of experiment for survival and weight.

Another data set deals with L1210 leukemia cells. Briefly: Survival of mice transplanted with L1210 leukemia cells. Conditions: AraC 1000 mg/kg IP Days 2, 5, 8; DNase II 15 or 45 mg/kg/day IP; alone or combined. The format is in vivo, DBA2 mice. On the procedure: Treatment with DNase and AraC was initiated on Day 1 of experiment. Cytosine arabinoside (AraC; Cytosar; Pfizer) was injected IP at a dose of 1000 mg/kg on Days 2, 5 and 8. The injected doses were considered adequate for the model and injection route based on prior experiments (13-14). DNase II (Wornington) was injected IP at doses of 15 mg/kg/day and 45 mg/kg/day on Days 1, 3, 5, 8, 10, 12, 15, 17, and 19.
Animals were randomized into 6 experimental groups of 6 mice per group as follows: • 1. Group I: negative control (no treatment); • 2. Group II: positive control (animals treated with AraC); • 3. Group III: animals treated with AraC and 15 mg/kg DNase; • 4. Group IV: animals treated with AraC and 45 mg/kg DNase; • 5. Group V: animals treated with 15 mg/kg DNase, no AraC; • 6. Group VI: animals treated with 45 mg/kg DNase, no AraC.

A short description of data set [2]: Cyclophosphamide-induced neutropenia, white blood cell count. The format is in vivo, BALB/C mice. Conditions: mice, cyclophosphamide 200 mg/kg IP Day 1; for early phase decline in WBC count (FIG. 3): DNase I 25 mg/kg/day IV or GM-CSF 200 μg/kg/day SC Days 2-5. The protocol: 30 female 10-12 week old BALB/C mice (obtained from Rappolovo animal house) were used in this experiment. […] On Day 1, neutropenia was induced by a single IP injection of 200 mg/kg cyclophosphamide (Cyclophosphanum-LANS) in 200 μl of WFI. Starting on Day 2, mice were then treated as follows: • 1. Group I (n=10): control (no treatment); • 2. Group II (n=10): animals were treated with human recombinant DNase I (Pharmsynthez OJSC) at 25 mg/kg/day (50000 KU/kg/day) dose injected IV on Days 2-5; • 3. Group III (n=10): animals were treated with human recombinant GM-CSF (Neostim, Pharmsynthez OJSC) at 200 μg/kg/day dose injected subcutaneously (SC) on Days 2-5.
The white blood cell count (WBC) in each animal was monitored daily during the 10 day experiment using blood cell counter.

Data set [3] is described as follows: Myocardial necrosis area in deceased rats challenged with doxorubicin. The format is in vivo. The note with it: doxorubicin 7.5 mg/kg, DNase I 15 mg/kg daily IP vs placebo. The protocol:
FIG. 1 is a bar graph showing myocardial necrosis area in deceased rats challenged with sub-lethal IV doses of doxorubicin (7.5 mg/kg) and either daily IP injections of human recombinant DNase I (15 mg/kg) (black bar) or daily IP injections of placebo (WFI) (diagonal hatched bar). Serial myocardium microscopy samples from each heart were analyzed using an automated video analyzer to quantify the necrotic areas. The sum of necrotic area (Sna; nm^2) was calculated as a sum of necrotic areas in 30 serial slides from each individual autopsied heart (n=3 for DNase I-treated rats—black bar; n=5 for placebo-treated rats—diagonal hatched bar).
The hearts deceased rats challenged with sub-lethal doses of doxorubicin (7.5 mg/kg) from (Groups IV and V) were autopsied. Serial myocardium microscopy samples from each heart were analyzed using an automated video analyzer to quantify the necrotic areas. The sum of necrotic area (Sna; nm^2) was calculated as a sum of necrotic areas in 30 serial slides from each individual autopsied heart (n=3 for Group IV (FIG. 1, black bars); n=5 for Group V (FIG. 1, diagonal hatched bars)). Group IV received daily IP injections of human recombinant DNase I at 15 mg/kg dose, while Group V received daily IP injections of placebo (WFI).

For another data set, the system named is Erlich carcinoma cells. The data set can be described thus: Erlich carcinoma ascites tumor with radiotherapy: survival and body weight.
Setting [4] is: Doxorubicin 7.5 mg/kg/day IV 5 days + DNase I 15 mg/kg/day IP (Group IV) or placebo (Group V).
The mark [5] stands for this setting: Doxorubicin 10.0 mg/kg/day IV 5 days + DNase I 15 mg/kg/day IP (Group VI) or placebo (Group VII).
[6] abbreviates: rats, Doxorubicin 7.5 mg/kg/day IV 5 days + DNase I 15 mg/kg/day IP (Group IV) or placebo (Group V), monitored 2 weeks.
Setting [7] is: rats, Doxorubicin 10.0 mg/kg/day IV 5 days + DNase I 15 mg/kg/day IP (Group VI) or placebo (Group VII), monitored 2 weeks.
The mark [8] stands for this setting: Group 2: DNAse I 20 mg/kg/day intramuscularly, no radiotherapy.
Where [9] appears, read: Group 3: DNAse I 40 mg/kg/day intramuscularly, no radiotherapy.
Where [10] appears, read: Group 4: radiotherapy 200 cGy per day for 5 days plus DNAse I 20 mg/kg/day intramuscularly.
[11] abbreviates: Group 5: radiotherapy 200 cGy per day for 5 days plus DNAse I 40 mg/kg/day intramuscularly.

Experimental for Erlich carcinoma cells: Radiotherapy was performed using a cobalt-60 teletherapy machine. The abdominal fields of the mice were treated by external irradiation. The fractionation was 200 cGy per day for 5 days. Mice were divided into 6 groups treated as follows: Group 1: radiotherapy only (external irradiation 200 cGy per day for 5 days); Group 2: recombinant human DNAse I (Pharmsynthez) 20 mg/kg/day administered intramuscularly in 2 daily doses; Group 3: recombinant human DNAse I (Pharmsynthez) 40 mg/kg/day administered intramuscularly in 2 daily doses; Group 4: radiotherapy (external irradiation 200 cGy per day for 5 days) plus recombinant human DNAse I (Pharmsynthez) 20 mg/kg/day administered intramuscularly in 2 daily doses; Group 5: radiotherapy (external irradiation 200 cGy per day for 5 days) plus recombinant human DNAse I (Pharmsynthez) 40 mg/kg/day administered intramuscularly in 2 daily doses. Group 6 was a control group receiving placebo (water for injection).

`CN/C(=N/CCSCc1nc[nH]c1C)NC#N` [Cimetidine, cimetidine, reference compound]: in data set [1] (treatment 50 mg/kg IV), the “Total number of lesions per group” value was found to be 40, the “Number of lesion free animals (percent)” value is recorded as 62.5%, the “Median number of lesions” value is recorded as 2.5 ± 1.1 and the “Number of lesion free animals” value was 10.
The term LD50 denotes the dose expected to kill half of the subjects tested. Lower therefore signals a more toxic substance. As to `COc1cccc2c1C(=O)c1c(O)c3c(c(O)c1C2=O)C[C@@](O)(C(=O)CO)C[C@@H]3O[C@H]1C[C@H](N)[C@H](O)[C@H](C)O1` [Doxorubicin, reference compound], the “Median survival of deceased rats” value in the data set “in vivo” (setting [4]) worked out at 8.2 ± 1.0 days; in “in vivo” (setting [5]), 6.6 ± 0.9 days; in the data set “in vivo” (male, Wistar, rat, in vivo), 12 ± 2.1 days. For the same molecule, the “Number of dead/out of total in group” value in the data set “in vivo” (male, Wistar, rat, in vivo) is listed as 3/6; in the data set “in vivo” (setting [6]) it was 5/6; in the data set “in vivo” (setting [7]), 6/6. This molecule came in with a median lethal dose (LD50) at 2 weeks in the data set “in vivo” (male, Wistar, rat, in vivo, iv) of 3.75 mg/kg.
Take `Nc1ccn([C@@H]2O[C@H](CO)[C@@H](O)[C@@H]2O)c(=O)n1` [AraC, cytosine arabinoside]: the “survival after implantation of L1210 leukemia cells (FIG. 4)” value in the data set with L1210 leukemia cells is reported as “better survival rates versus non-treated mice”.
For “GM-CSF: human recombinant GM-CSF (Neostim, Pharmsynthez OJSC)”, in data set [2], the “early phase decline in WBC count (FIG. 3)” value was “not able to prevent it”.

B1: human recombinant DNase I: human recombinant DNase I (Pharmsynthez OJSC), deoxyribonuclease enzyme (protein, UniProt P24855 23-282, looked up)
Deoxyribonuclease-1: LKIAAFNIQTFGETKMSNATLVSYIVQILSRYDIALVQEVRDSHLTAVGKLLDNLNQDAPDTYHYVVSEPLGRNSYKERYLFVYRPDQVSAVDSYYYDDGCEPCGNDTFNREPAIVRFFSRFTEVREFAIVPLHAAPGDAVAEIDALYDVYLDVQEKWGLEDVMLMGDFNAGCSYVRPSQWSSIRLWTSPTFQWLIPDSADTTATPTHCAYDRIVVAGMLLRGAVVPDSALPFNFQAAYGLSDQLAQAISDHYPVEVMLK
Turning to B1, the “myocardial necrosis area (sum of necrotic area, FIG. 1)” value in data set [3] is “decreases the myocardial necrosis area”. Also, in the data set with Erlich carcinoma cells (setting [8]), the “% Survival on Day 16” value is listed as 40% and the “Change in Median Body Weight on Day 16” value is given as “+2 g”. Also, in the data set with Erlich carcinoma cells (setting [9]), the “% Survival on Day 16” value was determined as 50% and the “Change in Median Body Weight on Day 16” value is on record as “+1.5 g”. Besides, in the data set on Erlich carcinoma cells (setting [10]), the “% Survival on Day 16” value amounted to 80% and the “Change in Median Body Weight on Day 16” value is 0. For the same molecule, in the data set with Erlich carcinoma cells (setting [11]), the “% Survival on Day 16” value came out at 100% and the “Change in Median Body Weight on Day 16” value is recorded as “+1.5 g”. Also, the “Median survival of deceased rats” value in “in vivo” (setting [4]) was found to be 10.3 ± 1.4 days. Besides, in “in vivo” (setting [5]), the “Median survival of deceased rats” value turned out to be 6.2 ± 1.0 days. In the data set “in vivo” (rat, in vivo), the “Body weight of surviving rats, Baseline” value was found to be 168 ± 4 grams; the “Body weight of surviving rats, Day 4” value worked out at 160 ± 6 grams; the “Body weight of surviving rats, Day 7” value was 158 ± 5 grams; the “Body weight of surviving rats, Day 14” value stood at 164 ± 6 grams. In the data set “in vivo” (rat, in vivo), the “Median survival of deceased rats” value is reported as 7 days and the “Number of dead/out of total in group” value is 1/6. Besides, the “Number of dead/out of total in group” value in “in vivo” (setting [6]) is on record as 3/6. In the data set “in vivo” (setting [7]), the “Number of dead/out of total in group” value is listed as 6/6. For the same molecule, in data set [1] (treatment 1.5 mg/kg IV), the “Total number of lesions per group” value came to 60, the “Number of lesion free animals (percent)” value amounted to 31.25%, the “Median number of lesions” value is recorded as 3.75 ± 1.53 and the “Number of lesion free animals” value is on record as 5. Besides, in data set [1] (treatment 50 mg/kg IV), the “Total number of lesions per group” value is reported as 16, the “Number of lesion free animals (percent)” value is listed as 75%, the “Median number of lesions” value is given as 1.00 ± 0.69 and the “Number of lesion free animals” value worked out at 12. For the same molecule, the “achieved protection against chemotherapy-induced ulceration” value in data set [1] (DNase I 50 mg/kg compared to 1.5 mg/kg DNase I and 50 mg/kg cimetidine) is “significantly superior”. In addition, the “macroscopic appearance of stained stomach (FIG. 2A)” value in data set [1] (oral Etoposide 200 mg/kg and 5-FU 400 mg/kg followed by IV DNase I 50 mg/kg) is recorded as “does not have any macroscopic abnormalities”. Further, in data set [2] (DNase I 25 mg/kg/day IV Days 2-5), the “neutropenia induced by cyclophosphamide (WBC, FIG. 3)” value is listed as “ameliorates neutropenia”. The “early phase decline in WBC count (FIG. 3)” value in data set [2] is reported as “prevents the typical early phase decline in WBC count”.
